Reference: publication PMC3466216, “The CRISPR Associated Protein Cas4 Is a 5′ to 3′ DNA Exonuclease with an Iron-Sulfur Cluster” (PLoS ONE, 2012)

Target: the molecule itself
Experiment: SEC; calibrated Superose-12 column, buffer E (20 mM Tris-HCl pH 7.5, 250 mM NaCl, 10% glycerol), flow rate 0.8 ml/min; self-association, size of the oligomer not determined

B1: Sso0001 (Cas4 family protein from Sulfolobus solfataricus) (enzyme, Sulfolobus solfataricus P2, UniProt Q97TX9 1-202, looked up)
chain: MITEFLLKKKLEEHLSHVKEENTIYVTDLVRCPRRVRYESEYKELAISQVYAPSAILGDILHLGLESVLKGNFNAETEVETLREINVGGKVYKIKGRADAIIRNDNGKSIVIEIKTSRSDKGLPLIHHKMQLQIYLWLFSAEKGILVYITPDRIAEYEINEPLDEATIVRLAEDTIMLQNSPRFNWECKYCIFSVICPAKLT
notes: Sso0001, Cas4 family protein of Sulfolobus solfataricus P2; the sso0001 gene was amplified from the genome with primers that begin at the start codon and end after the stop codon; a single subunit is printed as 23 kDa; Carries an iron-sulfur cluster (mean 4.3 iron atoms per protein, consistent with 4Fe:4S); No removal of the tag is described; The size of the oligomer was not determined; also …
binding result: binds
